Experimental data taken from the supplement of paper PMC9112550, “Optimization of the antimicrobial peptide Bac7 by deep mutational scanning” (BMC Biology, 2022).

What follows are sequences tested on Escherichia coli TOP10 (assay: shrunken log2 fold change of peptide-encoding DNA abundance (4.5 h post-induction vs induction); higher = less antimicrobial activity (less host growth inhibition)). Conditions: time post-induction: 4.5 h; library: site-saturation at positions 5, 18, 19, 20.
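Further: peptides expressed intracellularly from a pBAD plasmid library in pooled LB shake-flask culture, induced with 0.3% L-arabinose, DNA abundance read by NGS, three biological replicates, DESeq2 with apeglm shrinkage.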

Row | Sequence | shrunken log2 fold change
1 | RRIRERPPRLPRPRPRPDTNPRP | -0.183
2 | RRIRERPPRLPRPRPRPDTWPRP | -0.295
3 | RRIRERPPRLPRPRPRPDVAPRP | 0.087
4 | RRIRERPPRLPRPRPRPDVEPRP | 0.084
5 | RRIRERPPRLPRPRPRPDVMPRP | 0.0164
6 | RRIRERPPRLPRPRPRPDWMPRP | 0.0111
7 | RRIRERPPRLPRPRPRPDWRPRP | -0.0634
8 | RRIRERPPRLPRPRPRPEACPRP | -0.0166
9 | RRIRERPPRLPRPRPRPEASPRP | -0.0341
10 | RRIRERPPRLPRPRPRPECDPRP | 0.12
11 | RRIRERPPRLPRPRPRPECFPRP | 0.435
12 | RRIRERPPRLPRPRPRPECPPRP | 0.0592
13 | RRIRERPPRLPRPRPRPEDFPRP | 0.089
14 | RRIRERPPRLPRPRPRPEDSPRP | 0.00699
15 | RRIRERPPRLPRPRPRPEESPRP | 0.148
16 | RRIRERPPRLPRPRPRPEFDPRP | 0.039
17 | RRIRERPPRLPRPRPRPEFNPRP | -0.633
18 | RRIRERPPRLPRPRPRPEHEPRP | -0.0139
19 | RRIRERPPRLPRPRPRPEKYPRP | -0.534
20 | RRIRERPPRLPRPRPRPEMKPRP | 0.425
21 | RRIRERPPRLPRPRPRPEPSPRP | 0.0429
22 | RRIRERPPRLPRPRPRPEWTPRP | 0.0896
23 | RRIRERPPRLPRPRPRPEWVPRP | 0.241
24 | RRIRERPPRLPRPRPRPFAVPRP | -0.759
25 | RRIRERPPRLPRPRPRPFCDPRP | 0.211

Row | Sequence | shrunken log2 fold change
26 | RRIRERPPRLPRPRPRPFCPPRP | -0.149
27 | RRIRERPPRLPRPRPRPFCQPRP | -0.528
28 | RRIRERPPRLPRPRPRPFCWPRP | 0.0996
29 | RRIRERPPRLPRPRPRPFDFPRP | -0.146
30 | RRIRERPPRLPRPRPRPFFNPRP | 1.38
31 | RRIRERPPRLPRPRPRPFFQPRP | -0.173
32 | RRIRERPPRLPRPRPRPFGWPRP | 0.213
33 | RRIRERPPRLPRPRPRPFKNPRP | -0.174
34 | RRIRERPPRLPRPRPRPFKTPRP | -0.0273
35 | RRIRERPPRLPRPRPRPFLCPRP | -0.143
36 | RRIRERPPRLPRPRPRPFNHPRP | -1.01
37 | RRIRERPPRLPRPRPRPFNYPRP | -0.273
38 | RRIRERPPRLPRPRPRPFPKPRP | 0.459
39 | RRIRERPPRLPRPRPRPFQIPRP | -0.145
40 | RRIRERPPRLPRPRPRPFSNPRP | -0.441
41 | RRIRERPPRLPRPRPRPFSVPRP | -0.213
42 | RRIRERPPRLPRPRPRPFTPPRP | 0.116
43 | RRIRERPPRLPRPRPRPFWEPRP | -0.56
44 | RRIRERPPRLPRPRPRPFYTPRP | -0.629
45 | RRIRERPPRLPRPRPRPGAYPRP | -0.243
46 | RRIRERPPRLPRPRPRPGCQPRP | 0.0111
47 | RRIRERPPRLPRPRPRPGECPRP | -0.0577
48 | RRIRERPPRLPRPRPRPGEHPRP | 0.0251
49 | RRIRERPPRLPRPRPRPGFCPRP | -0.122
50 | RRIRERPPRLPRPRPRPGFEPRP | -0.1

Row | Sequence | shrunken log2 fold change
51 | RRIRERPPRLPRPRPRPGFMPRP | -0.136
52 | RRIRERPPRLPRPRPRPGGHPRP | 0.0363
53 | RRIRERPPRLPRPRPRPGHMPRP | -0.247
54 | RRIRERPPRLPRPRPRPGIIPRP | -0.0249
55 | RRIRERPPRLPRPRPRPGILPRP | -0.304
56 | RRIRERPPRLPRPRPRPGLGPRP | 0.602
57 | RRIRERPPRLPRPRPRPGMLPRP | -0.0705
58 | RRIRERPPRLPRPRPRPGMNPRP | -0.308
59 | RRIRERPPRLPRPRPRPGNSPRP | -0.115
60 | RRIRERPPRLPRPRPRPGPSPRP | -0.109
61 | RRIRERPPRLPRPRPRPGQHPRP | -0.242
62 | RRIRERPPRLPRPRPRPGSHPRP | -0.152
63 | RRIRERPPRLPRPRPRPGSVPRP | 0.00838
64 | RRIRERPPRLPRPRPRPGTYPRP | -0.478
65 | RRIRERPPRLPRPRPRPGYLPRP | -0.426
66 | RRIRERPPRLPRPRPRPGYYPRP | -0.0487
67 | RRIRERPPRLPRPRPRPHCKPRP | -1.07
68 | RRIRERPPRLPRPRPRPHCLPRP | -0.138
69 | RRIRERPPRLPRPRPRPHCPPRP | -0.0673
70 | RRIRERPPRLPRPRPRPHEPPRP | -0.0545
71 | RRIRERPPRLPRPRPRPHESPRP | 0.0153
72 | RRIRERPPRLPRPRPRPHEVPRP | -0.0812
73 | RRIRERPPRLPRPRPRPHFWPRP | 0.16
74 | RRIRERPPRLPRPRPRPHGCPRP | -0.00136
75 | RRIRERPPRLPRPRPRPHGIPRP | -0.00973
